From patent US20090324600A1 (PIERRE FABRE MEDICAMENT, published 2009)
Blank lines part the entries; values can stand above or below the molecule they belong to.

What was measured:
integrin α3β1 = integrin α3β1 (UniProt P26006); assay: cell-based or functional assay
integrin α6β4 = integrin α6β4 (UniProt P23229); assay: cell-based or functional assay
murine CD151 = target: T1, murine CD151 (murine, UniProt O35566 1-253); assay: Western blot of murine lung, pancreas and colon tissue lysates (10 µg total protein), non-reductive conditions
T1 construct: Endogenous protein in mouse tissue lysates on a Western blot; also called murine receptor
T1 sequence (looked up): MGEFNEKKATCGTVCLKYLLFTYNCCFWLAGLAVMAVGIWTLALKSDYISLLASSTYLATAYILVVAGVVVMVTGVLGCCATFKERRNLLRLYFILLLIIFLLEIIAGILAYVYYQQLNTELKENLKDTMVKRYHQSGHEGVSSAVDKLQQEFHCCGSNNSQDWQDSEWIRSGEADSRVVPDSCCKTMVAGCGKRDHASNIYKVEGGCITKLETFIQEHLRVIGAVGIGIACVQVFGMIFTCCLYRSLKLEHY
Experimental: The specificity of the TS151 and TS151r antibodies was evaluated by Western blot. Lysates of human and murine lung, pancreas and colon tissues (Biochain, 10 μg of total proteins) and also increasing amounts of HT-29 cell lysate (10, 20 and 50 μg of total proteins) were placed on a 4-12% acrylamide gel (BioRad). After electrophoresis (non-reductive conditions), the proteins were transferred onto nitrocellulose membranes. The transfer membranes were then incubated with the purified TS151 and TS151r antibodies and then with a rabbit anti-mouse Ig polyclonal antibody coupled to peroxidase (GE Healthcare) before ECL-type visualisation.

Chain of integrin α3β1 (P26006 33-1051, chain 1 of 2): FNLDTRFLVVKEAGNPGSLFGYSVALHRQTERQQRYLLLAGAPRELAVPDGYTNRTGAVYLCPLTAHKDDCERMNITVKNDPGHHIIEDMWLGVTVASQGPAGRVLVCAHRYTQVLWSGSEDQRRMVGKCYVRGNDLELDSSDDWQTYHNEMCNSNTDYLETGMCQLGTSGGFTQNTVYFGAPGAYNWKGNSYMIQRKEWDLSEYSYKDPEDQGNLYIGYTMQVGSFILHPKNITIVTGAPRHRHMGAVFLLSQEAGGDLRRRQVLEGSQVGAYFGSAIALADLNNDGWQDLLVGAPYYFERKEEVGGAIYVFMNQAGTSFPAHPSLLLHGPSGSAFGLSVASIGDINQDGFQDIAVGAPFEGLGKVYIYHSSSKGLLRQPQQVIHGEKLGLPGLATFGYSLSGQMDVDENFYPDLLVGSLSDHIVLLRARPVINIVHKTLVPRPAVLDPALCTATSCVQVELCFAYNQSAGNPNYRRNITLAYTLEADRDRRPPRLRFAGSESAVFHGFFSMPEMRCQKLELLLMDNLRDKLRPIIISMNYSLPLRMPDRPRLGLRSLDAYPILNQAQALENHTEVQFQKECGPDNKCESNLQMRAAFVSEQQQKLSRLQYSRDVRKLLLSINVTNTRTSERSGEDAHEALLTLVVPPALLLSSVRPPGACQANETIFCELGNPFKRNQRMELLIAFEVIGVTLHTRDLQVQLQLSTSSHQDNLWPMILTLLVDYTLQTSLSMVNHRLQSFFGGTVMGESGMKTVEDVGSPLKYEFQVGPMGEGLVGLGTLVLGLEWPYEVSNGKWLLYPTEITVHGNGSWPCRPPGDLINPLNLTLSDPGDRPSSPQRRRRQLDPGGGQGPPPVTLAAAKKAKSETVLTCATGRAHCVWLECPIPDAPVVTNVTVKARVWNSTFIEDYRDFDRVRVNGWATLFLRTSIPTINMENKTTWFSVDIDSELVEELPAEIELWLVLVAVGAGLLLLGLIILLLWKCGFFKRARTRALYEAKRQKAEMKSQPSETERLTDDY
Chain of integrin α3β1 (P05556 21-798, chain 2 of 2, further chain): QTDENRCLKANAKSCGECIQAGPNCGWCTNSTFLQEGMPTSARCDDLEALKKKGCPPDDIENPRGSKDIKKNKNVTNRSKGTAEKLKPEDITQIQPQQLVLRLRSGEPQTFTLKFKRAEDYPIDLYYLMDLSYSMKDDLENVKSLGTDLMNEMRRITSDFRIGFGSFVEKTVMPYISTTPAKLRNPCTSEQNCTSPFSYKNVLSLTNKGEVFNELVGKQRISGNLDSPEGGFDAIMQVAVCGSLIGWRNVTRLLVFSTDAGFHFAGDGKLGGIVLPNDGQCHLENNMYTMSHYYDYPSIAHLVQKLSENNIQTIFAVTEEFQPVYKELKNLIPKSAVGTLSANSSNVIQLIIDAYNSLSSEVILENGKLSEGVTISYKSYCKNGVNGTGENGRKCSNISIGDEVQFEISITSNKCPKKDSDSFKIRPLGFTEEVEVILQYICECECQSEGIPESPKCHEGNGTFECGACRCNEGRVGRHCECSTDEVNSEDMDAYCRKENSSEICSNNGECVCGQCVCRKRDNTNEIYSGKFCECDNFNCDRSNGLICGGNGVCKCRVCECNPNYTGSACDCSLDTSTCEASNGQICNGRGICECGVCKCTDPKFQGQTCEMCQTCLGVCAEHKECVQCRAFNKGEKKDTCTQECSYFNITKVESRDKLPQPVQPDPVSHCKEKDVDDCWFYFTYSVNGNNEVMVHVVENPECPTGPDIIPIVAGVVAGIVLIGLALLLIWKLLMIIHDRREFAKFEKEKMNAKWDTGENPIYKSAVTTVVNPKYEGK
Chain of integrin α6β4 (P23229 24-1130 limits assumed, chain 1 of 2): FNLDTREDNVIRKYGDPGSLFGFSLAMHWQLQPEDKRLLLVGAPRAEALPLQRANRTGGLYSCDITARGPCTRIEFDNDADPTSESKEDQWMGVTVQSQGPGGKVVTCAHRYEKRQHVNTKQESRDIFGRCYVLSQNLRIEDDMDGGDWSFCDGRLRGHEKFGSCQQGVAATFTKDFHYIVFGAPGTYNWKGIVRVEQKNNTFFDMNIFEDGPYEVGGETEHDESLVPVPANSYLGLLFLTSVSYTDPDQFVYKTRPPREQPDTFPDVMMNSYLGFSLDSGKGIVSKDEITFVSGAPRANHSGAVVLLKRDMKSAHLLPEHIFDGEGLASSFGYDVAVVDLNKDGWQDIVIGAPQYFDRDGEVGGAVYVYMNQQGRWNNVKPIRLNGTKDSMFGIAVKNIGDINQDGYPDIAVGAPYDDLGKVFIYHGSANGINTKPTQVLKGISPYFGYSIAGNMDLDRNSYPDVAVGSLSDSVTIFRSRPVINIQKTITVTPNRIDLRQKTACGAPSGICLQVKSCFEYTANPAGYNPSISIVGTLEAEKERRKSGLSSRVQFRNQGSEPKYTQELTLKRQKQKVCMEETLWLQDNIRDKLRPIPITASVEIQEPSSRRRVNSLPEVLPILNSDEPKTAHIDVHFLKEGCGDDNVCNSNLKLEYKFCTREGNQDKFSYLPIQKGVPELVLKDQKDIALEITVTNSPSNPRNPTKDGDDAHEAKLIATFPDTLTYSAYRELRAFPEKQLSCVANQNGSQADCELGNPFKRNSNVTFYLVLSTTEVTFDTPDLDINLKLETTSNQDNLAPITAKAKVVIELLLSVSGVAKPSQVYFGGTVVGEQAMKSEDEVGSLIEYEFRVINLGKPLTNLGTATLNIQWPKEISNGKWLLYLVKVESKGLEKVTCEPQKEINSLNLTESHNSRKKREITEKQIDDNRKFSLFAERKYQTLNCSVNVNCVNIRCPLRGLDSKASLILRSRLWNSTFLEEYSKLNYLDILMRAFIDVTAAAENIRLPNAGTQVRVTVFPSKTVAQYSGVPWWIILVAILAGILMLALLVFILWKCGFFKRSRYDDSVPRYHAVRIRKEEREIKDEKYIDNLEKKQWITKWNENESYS
Chain of integrin α6β4 (P16144 28-1822 limits assumed, chain 2 of 2, further chain): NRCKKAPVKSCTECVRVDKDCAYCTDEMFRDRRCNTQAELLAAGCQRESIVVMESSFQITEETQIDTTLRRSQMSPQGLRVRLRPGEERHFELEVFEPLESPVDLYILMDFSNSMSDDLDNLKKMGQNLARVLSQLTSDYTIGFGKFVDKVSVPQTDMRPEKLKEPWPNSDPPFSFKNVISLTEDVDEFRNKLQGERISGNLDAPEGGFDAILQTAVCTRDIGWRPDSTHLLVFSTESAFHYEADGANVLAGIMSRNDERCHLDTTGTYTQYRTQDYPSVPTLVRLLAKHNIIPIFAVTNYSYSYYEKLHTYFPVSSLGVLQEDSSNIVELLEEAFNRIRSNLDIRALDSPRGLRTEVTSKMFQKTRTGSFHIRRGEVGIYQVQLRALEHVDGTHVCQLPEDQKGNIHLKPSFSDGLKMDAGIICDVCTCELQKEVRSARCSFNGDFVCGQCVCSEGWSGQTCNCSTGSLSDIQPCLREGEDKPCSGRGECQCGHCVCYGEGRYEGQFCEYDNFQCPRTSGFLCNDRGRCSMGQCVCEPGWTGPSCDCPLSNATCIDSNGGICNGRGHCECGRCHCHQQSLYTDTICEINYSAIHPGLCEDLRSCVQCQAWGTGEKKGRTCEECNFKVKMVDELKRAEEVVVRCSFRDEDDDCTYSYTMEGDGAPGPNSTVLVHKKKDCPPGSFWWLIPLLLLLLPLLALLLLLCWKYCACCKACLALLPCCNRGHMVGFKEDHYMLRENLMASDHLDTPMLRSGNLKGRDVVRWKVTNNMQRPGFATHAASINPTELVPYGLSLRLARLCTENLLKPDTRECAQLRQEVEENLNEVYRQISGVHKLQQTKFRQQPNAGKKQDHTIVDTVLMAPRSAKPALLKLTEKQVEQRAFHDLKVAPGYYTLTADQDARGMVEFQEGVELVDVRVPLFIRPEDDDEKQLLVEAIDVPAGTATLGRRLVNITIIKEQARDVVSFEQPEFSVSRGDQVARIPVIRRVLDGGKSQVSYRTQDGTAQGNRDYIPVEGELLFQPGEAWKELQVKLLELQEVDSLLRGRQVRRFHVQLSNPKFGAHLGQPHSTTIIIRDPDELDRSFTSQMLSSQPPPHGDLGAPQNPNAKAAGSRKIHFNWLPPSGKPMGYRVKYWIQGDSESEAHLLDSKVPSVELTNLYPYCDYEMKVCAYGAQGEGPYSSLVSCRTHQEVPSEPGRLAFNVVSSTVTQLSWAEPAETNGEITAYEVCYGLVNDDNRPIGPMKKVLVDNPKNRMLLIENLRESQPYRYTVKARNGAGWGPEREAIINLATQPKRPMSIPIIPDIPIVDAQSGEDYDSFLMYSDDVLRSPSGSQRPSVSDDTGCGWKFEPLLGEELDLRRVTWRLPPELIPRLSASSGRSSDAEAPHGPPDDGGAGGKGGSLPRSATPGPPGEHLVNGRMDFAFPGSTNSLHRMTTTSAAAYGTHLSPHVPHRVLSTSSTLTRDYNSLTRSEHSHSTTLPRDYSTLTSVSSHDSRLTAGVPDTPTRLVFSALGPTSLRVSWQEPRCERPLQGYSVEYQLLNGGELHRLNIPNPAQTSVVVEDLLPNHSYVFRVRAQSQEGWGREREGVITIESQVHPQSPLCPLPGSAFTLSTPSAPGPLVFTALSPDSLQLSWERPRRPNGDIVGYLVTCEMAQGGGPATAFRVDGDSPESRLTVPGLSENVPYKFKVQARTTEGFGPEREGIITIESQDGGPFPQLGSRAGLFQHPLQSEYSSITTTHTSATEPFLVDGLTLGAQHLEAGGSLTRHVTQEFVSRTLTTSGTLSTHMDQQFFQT

inhibition of adhesion of A549 cells on laminin 5, 15 minutes (integrin α3β1): > 90% | inhibition of adhesion of A549 cells on laminin 5, 1 hour (integrin α3β1): 20%
Molecule: anti-integrin α3 antibody P1B5

inhibition of adhesion of A549 cells on laminin 5 after 1 hour, NKI-Go3 in association with P1B5 (integrin α6β4): > 90%
Molecule: anti-integrin α6 antibody NKI-Go3

inhibition of adhesion of A549 cells on laminin 5 after 1 hour, ASC-3 in association with P1B5 (integrin α6β4): 70%
Molecule: anti-integrin β4 antibody ASC-3

binding result (murine CD151): no binding
B1: TS151 antibody (antibody, mouse IgG1, V domains shown)
VH: QIQLVQSGPELKKPGETVKISCKASGYTFTDYSMHWVKQAPGKGLKWMGWINTETGEPTYTDDFKGRFAFSLETSANTAYLRINNLKNEDTATYFCARREYGNYYGMEYWGQGTSVTVSS
VL: DIVLTQSPASLAVSLGQRATISCRASQSVSTSTFSYIHWYQQKPGQPPKLLIKSASNLESGVPARFSGSGSGTDFTLTIHPVEEEDTATYFCQHSWEIPLTFGAGTKLELK
notes: Murine monoclonal from a hybridoma; also called anti-CD151 antibody TS151

binding result (murine CD151): no binding
B2: TS151r antibody (antibody, mouse IgG1, V domains shown)
VH: QVQLQQPGSVVVRPGASVKLSCKASGYTFTSSWMHWAKQRPGQGLEWIGQIHPNSGNTNYNEKFKVKATLTIDTSSSTAYVDLNSLTSGDSAVYYCARGDDAYYSGLYAMDYWGQGTSVTVSS
VL: DIVLTQSPASLAVSLGQRATISCRASQSVSTSRYSYMHWYQQIQGQPPKLLIKYASNLESGVPARFSGSGSGTDFTLNIHPVEEEDTATYHCQHSWEIPYTFGGGTTLEIK
notes: Murine monoclonal from a hybridoma
